Test results reported in patent publication US20250171562A1.

Target: mixture of three Der p 2 specific recombinant human IgE clones H10, H12, P4E (human) (UniProt P01854)
Experiment: RBL-SX38 IgE displacement, FACS

Sequence of mixture of three Der p 2 specific recombinant human IgE clones H10, H12, P4E (human) (P01854 other isoform, or with tags, fused parts or gaps): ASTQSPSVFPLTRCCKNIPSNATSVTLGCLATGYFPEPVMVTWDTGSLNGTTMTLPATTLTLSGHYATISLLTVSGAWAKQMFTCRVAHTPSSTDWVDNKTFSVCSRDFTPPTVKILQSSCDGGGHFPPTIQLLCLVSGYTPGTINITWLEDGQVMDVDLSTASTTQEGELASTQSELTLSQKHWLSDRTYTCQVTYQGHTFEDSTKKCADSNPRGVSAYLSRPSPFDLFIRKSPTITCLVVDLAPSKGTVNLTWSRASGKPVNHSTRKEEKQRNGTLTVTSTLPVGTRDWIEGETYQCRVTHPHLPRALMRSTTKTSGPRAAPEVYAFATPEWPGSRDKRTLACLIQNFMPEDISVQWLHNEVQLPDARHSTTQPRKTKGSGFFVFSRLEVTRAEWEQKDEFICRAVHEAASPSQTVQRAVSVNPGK

Binder	EC50 [nM]	Max effect/effect 1 µM [%]
NIgG4F6A1(G4S)1 (Fc fusion) chain 1: DVQLQESGGGLVQAGGSLRLSCAASGLTFGSYDMGWYRQAPGKQRELVGRIRNDGITYYADSVKGRFTMSRDNAKNTVYLQMNSLKPEDTAVYYCAADGTGLGHYDYWGQGTQVTVSGGGGSGPPCPPCPAPEFLGGPSVFLFPPKPKDTLMISRTPEVTCVVVDVSQEDPEVQFNWYVDGVEVHNAKTKPREEQFNSTYRVVSVLTVLHQDWLNGKEYKCKVSNKGLPSSIEKTISKAKGQPREPQVYTLPPCQEEMTKNQVSLWCLVKGFYPSDIAVEWESNGQPENNYKTTPPVLDSDGSFFLYSRLTVDKSRWQEGNVFSCSVMHEALHNHYTQKSLSLSLGK chain 2: EVQLLESGGGLVQPGGSLRLSCAASGFTFGNYDMAWVRQAPGKRPEWVSSIDTGGDITHYADSVKGRFTISRDNAKNTLYLQMNSLRPEDTAVYWCATDEEYALGPNEFDYYGQGTLVTVSSGGGGSGPPCPPCPAPEFLGGPSVFLFPPKPKDTLMISRTPEVTCVVVDVSQEDPEVQFNWYVDGVEVHNAKTKPREEQFNSTYRVVSVLTVLHQDWLNGKEYKCKVSNKGLPSSIEKTISKAKGQPREPQVCTLPPSQEEMTKNQVSLSCAVKGFYPSDIAVEWESNGQPENNYKTTPPVLDSDGSFFLVSRLTVDKSRWQEGNVFSCSVMHEALHNHYTQKSLSLSLGK	2.2	68
NIgG4F6A1(G4S)2 (Fc fusion) chain 1: DVQLQESGGGLVQAGGSLRLSCAASGLTFGSYDMGWYRQAPGKQRELVGRIRNDGITYYADSVKGRFTMSRDNAKNTVYLQMNSLKPEDTAVYYCAADGTGLGHYDYWGQGTQVTVSGGGGSGGGGSGPPCPPCPAPEFLGGPSVFLFPPKPKDTLMISRTPEVTCVVVDVSQEDPEVQFNWYVDGVEVHNAKTKPREEQFNSTYRVVSVLTVLHQDWLNGKEYKCKVSNKGLPSSIEKTISKAKGQPREPQVYTLPPCQEEMTKNQVSLWCLVKGFYPSDIAVEWESNGQPENNYKTTPPVLDSDGSFFLYSRLTVDKSRWQEGNVFSCSVMHEALHNHYTQKSLSLSLGK chain 2: EVQLLESGGGLVQPGGSLRLSCAASGFTFGNYDMAWVRQAPGKRPEWVSSIDTGGDITHYADSVKGRFTISRDNAKNTLYLQMNSLRPEDTAVYWCATDEEYALGPNEFDYYGQGTLVTVSSGGGGSGGGGSGPPCPPCPAPEFLGGPSVFLFPPKPKDTLMISRTPEVTCVVVDVSQEDPEVQFNWYVDGVEVHNAKTKPREEQFNSTYRVVSVLTVLHQDWLNGKEYKCKVSNKGLPSSIEKTISKAKGQPREPQVCTLPPSQEEMTKNQVSLSCAVKGFYPSDIAVEWESNGQPENNYKTTPPVLDSDGSFFLVSRLTVDKSRWQEGNVFSCSVMHEALHNHYTQKSLSLSLGK	2.3	76
CIgG4F6A1(G4S)1 (Fc fusion) chain 1: GPPCPPCPAPEFLGGPSVFLFPPKPKDTLMISRTPEVTCVVVDVSQEDPEVQFNWYVDGVEVHNAKTKPREEQFNSTYRVVSVLTVLHQDWLNGKEYKCKVSNKGLPSSIEKTISKAKGQPREPQVYTLPPCQEEMTKNQVSLWCLVKGFYPSDIAVEWESNGQPENNYKTTPPVLDSDGSFFLYSRLTVDKSRWQEGNVFSCSVMHEALHNHYTQKSLSLSLGKGGGGSDVQLQESGGGLVQAGGSLRLSCAASGLTFGSYDMGWYRQAPGKQRELVGRIRNDGITYYADSVKGRFTMSRDNAKNTVYLQMNSLKPEDTAVYYCAADGTGLGHYDYWGQGTQVTVS chain 2: GPPCPPCPAPEFLGGPSVFLFPPKPKDTLMISRTPEVTCVVVDVSQEDPEVQFNWYVDGVEVHNAKTKPREEQFNSTYRVVSVLTVLHQDWLNGKEYKCKVSNKGLPSSIEKTISKAKGQPREPQVCTLPPSQEEMTKNQVSLSCAVKGFYPSDIAVEWESNGQPENNYKTTPPVLDSDGSFFLVSRLTVDKSRWQEGNVFSCSVMHEALHNHYTQKSLSLSLGKGGGGSEVQLLESGGGLVQPGGSLRLSCAASGFTFGNYDMAWVRQAPGKRPEWVSSIDTGGDITHYADSVKGRFTISRDNAKNTLYLQMNSLRPEDTAVYWCATDEEYALGPNEFDYYGQGTLVTVSS	59.9	95
CIgG4F6A1(RS) (Fc fusion) chain 1: GPPCPPCPAPEFLGGPSVFLFPPKPKDTLMISRTPEVTCVVVDVSQEDPEVQFNWYVDGVEVHNAKTKPREEQFNSTYRVVSVLTVLHQDWLNGKEYKCKVSNKGLPSSIEKTISKAKGQPREPQVYTLPPCQEEMTKNQVSLWCLVKGFYPSDIAVEWESNGQPENNYKTTPPVLDSDGSFFLYSRLTVDKSRWQEGNVFSCSVMHEALHNHYTQKSLSLSLGKRSDVQLQESGGGLVQAGGSLRLSCAASGLTFGSYDMGWYRQAPGKQRELVGRIRNDGITYYADSVKGRFTMSRDNAKNTVYLQMNSLKPEDTAVYYCAADGTGLGHYDYWGQGTQVTVS chain 2: GPPCPPCPAPEFLGGPSVFLFPPKPKDTLMISRTPEVTCVVVDVSQEDPEVQFNWYVDGVEVHNAKTKPREEQFNSTYRVVSVLTVLHQDWLNGKEYKCKVSNKGLPSSIEKTISKAKGQPREPQVCTLPPSQEEMTKNQVSLSCAVKGFYPSDIAVEWESNGQPENNYKTTPPVLDSDGSFFLVSRLTVDKSRWQEGNVFSCSVMHEALHNHYTQKSLSLSLGKRSEVQLLESGGGLVQPGGSLRLSCAASGFTFGNYDMAWVRQAPGKRPEWVSSIDTGGDITHYADSVKGRFTISRDNAKNTLYLQMNSLRPEDTAVYWCATDEEYALGPNEFDYYGQGTLVTVSS		96

Now from value to binder:

EC50 [nM]	Max effect/effect 1 µM [%]	Binder
2.7	87	NIgG4F6A1(G4S)3 (Fc fusion) chain 1: DVQLQESGGGLVQAGGSLRLSCAASGLTFGSYDMGWYRQAPGKQRELVGRIRNDGITYYADSVKGRFTMSRDNAKNTVYLQMNSLKPEDTAVYYCAADGTGLGHYDYWGQGTQVTVSGGGGSGGGGSGGGGSGPPCPPCPAPEFLGGPSVFLFPPKPKDTLMISRTPEVTCVVVDVSQEDPEVQFNWYVDGVEVHNAKTKPREEQFNSTYRVVSVLTVLHQDWLNGKEYKCKVSNKGLPSSIEKTISKAKGQPREPQVYTLPPCQEEMTKNQVSLWCLVKGFYPSDIAVEWESNGQPENNYKTTPPVLDSDGSFFLYSRLTVDKSRWQEGNVFSCSVMHEALHNHYTQKSLSLSLGK chain 2: EVQLLESGGGLVQPGGSLRLSCAASGFTFGNYDMAWVRQAPGKRPEWVSSIDTGGDITHYADSVKGRFTISRDNAKNTLYLQMNSLRPEDTAVYWCATDEEYALGPNEFDYYGQGTLVTVSSGGGGSGGGGSGGGGSGPPCPPCPAPEFLGGPSVFLFPPKPKDTLMISRTPEVTCVVVDVSQEDPEVQFNWYVDGVEVHNAKTKPREEQFNSTYRVVSVLTVLHQDWLNGKEYKCKVSNKGLPSSIEKTISKAKGQPREPQVCTLPPSQEEMTKNQVSLSCAVKGFYPSDIAVEWESNGQPENNYKTTPPVLDSDGSFFLVSRLTVDKSRWQEGNVFSCSVMHEALHNHYTQKSLSLSLGK
3.2	26	NIgG4F6A1(RS) (Fc fusion) chain 1: DVQLQESGGGLVQAGGSLRLSCAASGLTFGSYDMGWYRQAPGKQRELVGRIRNDGITYYADSVKGRFTMSRDNAKNTVYLQMNSLKPEDTAVYYCAADGTGLGHYDYWGQGTQVTVSRSGPPCPPCPAPEFLGGPSVFLFPPKPKDTLMISRTPEVTCVVVDVSQEDPEVQFNWYVDGVEVHNAKTKPREEQFNSTYRVVSVLTVLHQDWLNGKEYKCKVSNKGLPSSIEKTISKAKGQPREPQVYTLPPCQEEMTKNQVSLWCLVKGFYPSDIAVEWESNGQPENNYKTTPPVLDSDGSFFLYSRLTVDKSRWQEGNVFSCSVMHEALHNHYTQKSLSLSLGK chain 2: EVQLLESGGGLVQPGGSLRLSCAASGFTFGNYDMAWVRQAPGKRPEWVSSIDTGGDITHYADSVKGRFTISRDNAKNTLYLQMNSLRPEDTAVYWCATDEEYALGPNEFDYYGQGTLVTVSSRSGPPCPPCPAPEFLGGPSVFLFPPKPKDTLMISRTPEVTCVVVDVSQEDPEVQFNWYVDGVEVHNAKTKPREEQFNSTYRVVSVLTVLHQDWLNGKEYKCKVSNKGLPSSIEKTISKAKGQPREPQVCTLPPSQEEMTKNQVSLSCAVKGFYPSDIAVEWESNGQPENNYKTTPPVLDSDGSFFLVSRLTVDKSRWQEGNVFSCSVMHEALHNHYTQKSLSLSLGK
